Experimental data: patent US11780902B1, “Receptor/histidine kinase fusion constructs and uses thereof” (priority 2018, dated 2023)

Tests used:
GFP reporter gene = assay: Maltose / aspartate induction of Tar HK fusions, GFP reporter gene fluorescence, FACS screen; format: cell-based, E. coli; conditions: for maltose inducibility: maltose via MBP
[1] = tested on: PhoB responsive promoter driving a β-galactosidase reporter gene; format: cell-based, E. coli
[2] = cited from earlier work
[3] = tested on: plant pho promoter: luciferase reporter gene; assay: Luciferase reporter in transgenic Arabidopsis, circuit RBP→TrzPhoR→PhoBVP64, exposure to ribose; format: in vivo; conditions: 0 hours vs 24 hours after exposure to ribose
Procedure: FIG. 9A and FIG. 9B. Imaging of a luciferase gene reporter in transgenic Arabidopsis with the signaling circuit Ribose Binding Protein (RBP)→TrzPhoR→PhoBVP64 activating a plant pho promoter: luciferase reporter gene FIG. 9A. Four transgenic Arabidopsis lines at 0 hours (no exposure to ribose) top panel and 24 hours after exposure to ribose bottom panel. FIG. 9B. Quantification of luciferase activity from FIG. 9A.
Because the ground state of a histidine kinase is such that the kinase is active, “kinase on” and the predominate signaling phenotype seen in non-functional fusions is “kinase on,” the inventors reasoned that the valine at the D position is essential in maintaining the “kinase off” state in the absence of ligand dependent signaling. Fusions where the D position valine is replaced by alanine, glycine (the two hydrophobic amino acids smaller than valine) or a methionine (the D position residue of PhoR) results in constitutive activation (FIG. 8). E. coli has 10 HKs, including EnvZ, with HAMP domains adjacent to the HK coiled coil (FIG. 8). EnvZ is the only HK with a valine in the A/D position. There are 4 other amino acids, glutamate, isoleucine, leucine and threonine that occupy the A/D position in the 9 other E. coli HKs with a HAMP/HK coiled coil A/D overlap. […]

[4] = tested on: PhoB responsive promoter driving a β-galactosidase reporter gene; conditions: E. coli BW23423; maltose control vs ribose; X-Gal; functional = off without ligand, on with ligand

B1: Tac8: TrzChim3-8 with the chemotactic receptor Tar replacing the chemotactic receptor Trg, SEQ ID NO:22 (protein)
chain: MINRIRVVTLLVMVLGVFALLQLISGSLFFSSLHHSQKSFVVSNQLREQQGELTSTWDLMLQTRINLSRSAVRMMMDSSNQQSNAKVELLDSARKTLAQAATHYKKFKSMAPLPEMVATSRNIDEKYKNYYTALTELIDYLDYGNTGAYFAQPTQGMQNAMGERFAQYALSSEKLYRDIVTDNADDYRFAQWQLAVIALVVVLILLVAWYGIRRMLLTPLAKIIAHIREIAGGNLANTLTIDGRSEMGDLAQSVSHMAAGVKQLRGVRTLLMAGVSHDLRTPLTVLQGYLEMMNEQPLEGAVREKALHTMREQTQRMNAIIEQFIDYLRTGQEMPMEMADLNAVLGEVIAAESGYEREIETALYPGSIEVKMHPLSIKRAVANMVVNAARYGNGWIKVSSGTEPNRAWFQVEDDGPGIAPEQRKHLFQPFVRGDSARTISGTGLGLAIVQRIVDNHNGMLELGTSERGGLSIRAWLPVPVTRAQGTTKEG
modifications: Fusion protein
- aspartate inducibility (GFP reporter gene): aspartate inducibility of both fusions was observed
- maltose inducibility (GFP reporter gene): no maltose inducibility

B2: Tac40: Maltose inducible directed evolution variant of Tac8, SEQ ID NO:24 (protein)
chain: MINRIRVVTLLVMVLGVFALLQLISGSLFFSSLHHSQKSFVVSNQLREQQGELTSTWDLMLQTRINLSRSAVRMMMDSSNQQSNAKVELLDSARKTLAQAATHYKKFKSMAPLPEMVATSRNIDEKYKNYYTALTELIDYLDYGNTGAYFAQPTQGMQNAMGERFAQYALSSEKLYRDIVTDNADDYRFAQWQLAVIALVVVLILLVAWYGIRRMLLTPLAKIIAHIREIAGGNLANTLTIDGRSEMGDLAQSVSHMAAGVKQLVWRRTLLMAGVSHDLRTPLTVLQGYLEMMNEQPLEGAVREKALHTMREQTQRMNAIIEQFIDYLRTGQEMPMEMADLNAVLGEVIAAESGYEREIETALYPGSIEVKMHPLSIKRAVANMVVNAARYGNGWIKVSSGTEPNRAWFQVEDDGPGIAPEQRKHLFQPFVRGDSARTISGTGLGLAIVQRIVDNHNGMLELGTSERGGLSIRAWLPVPVTRAQGTTKEG
modifications: Fusion protein
- maltose inducibility (GFP reporter gene): Maltose inducible

B3: PhoQTrzPhoR: Mg^2+ responsive PhoQ receptor fused to TrzPhoR at the D position, SEQ ID NO:40 (protein)
chain: MPGRSKWYRRWRPRSLQARQLLAASLSLVAFLALAGYALDVAFADTAEKNLRERLKNYASAYAANIDFVRDGSLYIGGQPPDPRFDVPGGGLYVEVVRPDESWTSMSAEGPNIPHGRMLEPRQEEFIGPLEMTQIDGSLGQLYRYGLGVSYVEREHGGEIPYTIYVMEDARSMGAQLRVFRGAVWFYLGSAGVVLLVLQAFILQWSLRPLRRVINELTKVQRGEIQRMSEQHPRELEPLTDSINAFIESVKQLEGARRNFFANVSHELRTPLTVLQGYLEMMNEQPLEGAVREKALHTMREQTQRMEGLVKQLLTLSKIEAAPTHLLNEKVDVPMMLRVVEREAQTLSQKKQTFTFEIDNGLKVSGNEDQLRSAISNLVYNAVNHTPEGTHITVRWQRVPHGAEFSVEDNGPGIAPEHIPRLTERFYRVDKARSRQTGGSGLGLAIVKHAVNHHESRLNIESTVGKGTRFSFVIPERLIAKNSD
modifications: Fusion protein
- Mg^2+ signaling (β-galactosidase activity) [1]: increase in Mg^2+ signaling

B4: Taz: Tar chemotactic receptor fused to EnvZ histidine kinase at conserved HAMP domain, SEQ ID NO:38 (protein)
chain: MINRIRVVTLLVMVLGVFALLQLISGSLFFSSLHHSQKSFVVSNQLREQQGELTSTWDLMLQTRINLSRSAVRMMMDSSNQQSNAKVELLDSARKTLAQAATHYKKFKSMAPLPEMVATSRNIDEKYKNYYTALTELIDYLDYGNTGAYFAQPTQGMQNAMGERFAQYALSSEKLYRDIVTDNADDYRFAQWQLAVIALVVVLILLVAWYGIRRMLLTPLAKIIAHIREIAGGNLANTLTIDGRSEMGDLAQSVSHMAAGVKQLADDRTLLMAGVSHDLRTPLTRIRLATEMMSEQDGYLAESINKDIEECNAIIEQFIDYLRTGQEMPMEMADLNAVLGEVIAAESGYEREIETALYPGSIEVKMHPLSIKRAVANMVVNAARYGNGWIKVSSGTEPNRAWFQVEDDGPGIAPEQRKHLFQPFVRGDSARTISGTGLGLAIVQRIVDNHNGMLELGTSERGGLSIRAWLPVPVTRAQGTTKEG
modifications: Fusion protein
- induction by aspartate ([2]; aspartate): retains the ability to be induced by aspartate
- response to maltose ([2]; maltose): no longer shows a response to maltose

B5: TazPhoR: TrzPhoR fusion with the Tar chemotactic receptor replacing the Trg chemotactic receptor, SEQ ID NO:16 (protein)
chain: MKLLSKTFLILTLTFFFFGIALAKMINRIRVVTLLVMVLGVFALLQLISGSLFFSSLHHSQKSFVVSNQLREQQGELTSTWDLMLQTRINLSRSAVRMMMDSSNQQSNAKVELLDSARKTLAQAATHYKKFKSMAPLPEMVATSRNIDEKYKNYYTALTELIDYLDYGNTGAYFAQPTQGMQNAMGEAFAQYALSSEKLYRDIVTDNADDYRFAQWQLAVIALVVVLILLVAWYGIRRMLLTPLAKIIAHIREIAGGNLANTLTIDGRSEMGDLAQSVSHMAAGVKQLEGARRNFFANVSHELRTPLTVLQGYLEMMNEQPLEGAVREKALHTMREQTQRMEGLVKQLLTLSKIEAAPTHLLNEKVDVPMMLRVVEREAQTLSQKKQTFTFEIDNGLKVSGNEDQLRSAISNLVYNAVNHTPEGTHITVRWQRVPHGAEFSVEDNGPGIAPEHIPRLTERFYRVDKARSRQTGGSGLGLAIVKHAVNHHESRLNIESTVGKGTRFSFVIPERLIAKNSD
modifications: Fusion protein
- aspartate inducibility (GFP reporter gene): aspartate inducibility of both fusions was observed
- maltose inducibility (GFP reporter gene): no maltose inducibility

B6: TazPhoR 86: Maltose inducible directed evolution variant of TazPhoR, SEQ ID NO:20 (protein)
chain: MKLLSKTFLILTLTFFFFGIALAKMINRIRVVTLLVMVLGVFALLQLISGSLFFSSLHHSQKSFVVSNQLREQQGELTSTWDLMLQTRINLSRSAVRMMMDSSNQQSNAKVELLDSARKTLAQAATHYKKFKSMAPLPEMVATSRNIDEKYKNYYTALTELIDYLDYGNTGAYFAQPTQGMQNAMGEAFAQYALSSEKLYRDIVTDNADDYRFAQWQLAVIALVVVLILLVAWYGIRRMLLTPLAKIIAHIREIAGGNLANTLTIDGRSEMGDLAQSVSHMAAGVKQLRVWRRNFFANVSHELRTPLTVLQGYLEMMNEQPLEGAVREKALHTMREQTQRMEGLVKQLLTLSKIEAAPTHLLNEKVDVPMMLRVVEREAQTLSQKKQTFTFEIDNGLKVSGNEDQLRSAISNLVYNAVNHTPEGTHITVRWQRVPHGAEFSVEDNGPGIAPEHIPRLTERFYRVDKARSRQTGGSGLGLAIVKHAVNHHESRLNIESTVGKGTRFSFVIPERLIAKNSD
modifications: Fusion protein
- maltose inducibility (GFP reporter gene): Maltose inducible

B7: TazPhoR 61: Maltose inducible directed evolution variant of TazPhoR, SEQ ID NO:18 (protein)
chain: MKLLSKTFLILTLTFFFFGIALAKMINRIRVVTLLVMVLGVFALLQLISGSLFFSSLHHSQKSFVVSNQLREQQGELTSTWDLMLQTRINLSRSAVRMMMDSSNQQSNAKVELLDSARKTLAQAATHYKKFKSMAPLPEMVATSRNIDEKYKNYYTALTELIDYLDYGNTGAYFAQPTQGMQNAMGEAFAQYALSSEKLYRDIVTDNADDYRFAQWQLAVIALVVVLILLVAWYGIRRMLLTPLAKIIAHIREIAGGNLANTLTIDGRSEMGDLAQSVSHMAAGVKQLRRNFFANVSHELRTPLTVLQGYLEMMNEQPLEGAVREKALHTMREQTQRMEGLVKQLLTLSKIEAAPTHLLNEKVDVPMMLRVVEREAQTLSQKKQTFTFEIDNGLKVSGNEDQLRSAISNLVYNAVNHTPEGTHITVRWQRVPHGAEFSVEDNGPGIAPEHIPRLTERFYRVDKARSRQTGGSGLGLAIVKHAVNHHESRLNIESTVGKGTRFSFVIPERLIAKNSD
modifications: Fusion protein
- maltose inducibility (GFP reporter gene): Maltose inducible

B8: TrzPhoR: coiled coil based fusion of Trz (Trg chemotactic receptor/EnvZ histidine kinase fusion) to PhoR histidine kinase, SEQ ID NO:2 (protein)
chain: MNTTPSQRLGFLHHIRLVPLFACILGGILVLFALSSALAGYFLWQADRDQRDVTAEIEIRTGLANSSDFLRSARINMIQAGAASRIAEMEAMKRNIAQAESEIKQSQQGYRAYQNRPVKTPADEALDTELNQRFQAYITGMQPMLKYAKNGMFEAIINHESEQIRPLDNAYTDILNKAVKIRSTRANQLAELAHQRTRLGGMFMIGAFVLALVMTLITFMVLRRIVIRPLQHAAQRIEKIASGDLTMNDEPAGRNEIGRLSRHLQHMAAGVKQLEGARRNFFANVSHELRTPLTVLQGYLEMMNEQPLEGAVREKALHTMREQTQRMEGLVKQLLTLSKIEAAPTHLLNEKVDVPMMLRVVEREAQTLSQKKQTFTFEIDNGLKVSGNEDQLRSAISNLVYNAVNHTPEGTHITVRWQRVPHGAEFSVEDNGPGIAPEHIPRLTERFYRVDKARSRQTGGSGLGLAIVKHAVNHHESRLNIESTVGKGTRFSFVIPERLIAKNSD
- function in the plant detector system (luciferase activity) [3]: highly functional
- signaling phenotype of the fusion (ribose inducible β-galactosidase activity) [4]: functional
